From publication PMC4669440

Legend:
Settings in all cases: glycan lost; control: WT mice
[1] = X-ray radiography of long bones
[2] = immunohistochemistry, anti-DMP1-N 9B6.3, cortical bone
[3] = H&E histology of long bone
[4] = three-point bending of femur and tibia
[5] = TRAP staining, 6-month-old mice

B1: Dentin matrix protein 1 (DMP1): S89G (protein)
parent chain: MKTVILLVFLWGLSCALPVARYHNTESESSEERTGDLAGSPPPPTNSESSEESQASPEGQANSDHTDSSESGEELGYDRGQYRPAGGLSKSTGTGADKEDDEDDSGDDTFGDEDNDLGPEEGQWGGPSKLDSDEDSTDTTQSSEDSTSQENSAQDTPSDSKDHDSEDEADSRPEAGDSTQDSESEEQRVGGGSEGESSHGDGSEFDDEGMQSDDPESTRSDRGHARMSSAGIRSEESKGDHEPTSTQDSDDSQSVEFSSRKSFRRSHVSEEDYRGELTDSNSRETQSDSTEDTASKEESRSESQEDTAESQSQEDSPEGQDPSSESSEEAGEPSQESSSESQEGVTSESRGDNPDNTSQAGDQEDSESSEEDSLNTFSSSESQSTEEQADSESNESLSLSEESQESAQDGDSSSQEGLQSQSASTESRSQESQSEQDSRSEEDSDSQDSSRSKEESNSTGSASSSEEDIRPKNMEADSRKLIVDAYHNKPIGDQDDNDCQDGY
decreases: other: radiographic bone density [1] | expression_or_secretion [2] | other: articular cartilage thickness [3] | other: bone mechanical strength [4] | other: osteoclast number in bone [5]
